Source: patent US20170355777A1 (UNIVERSITY OF LEICESTER, published 2017)

Biological target: T1, recombinant MLP (rMLP) C-terminal fusion protein: N-terminal histidine tag fused to residues 279-431 of human … (human)
T1 construct: Expressed in E. coli from pRSETB and purified on a nickel column; ran at 28 kDa; also called rMLP C-terminal protein; recombinant MLP C-terminal protein
T1 chain: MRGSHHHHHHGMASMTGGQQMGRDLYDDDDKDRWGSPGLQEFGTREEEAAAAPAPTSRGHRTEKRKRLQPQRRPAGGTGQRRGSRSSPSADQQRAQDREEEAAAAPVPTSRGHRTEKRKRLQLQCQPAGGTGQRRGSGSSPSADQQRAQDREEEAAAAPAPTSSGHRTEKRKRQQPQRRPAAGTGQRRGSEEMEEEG
Assay: KD (binding to rMLP); method not described at the table

B1: anti-MLP monoclonal antibody αMLP Clone C (hybridoma ATCC PTA-121701) (antibody, IgG1, V domains shown)
VH: DVKLQESGGGLVQPGGSMKLSCVASGFTFSNYWMNWVRQSPEKGLEWVAEIRLKSNNYAINYAESVKGRFTISRDDSKSSVYLDMNNLRAEDTGIYYCTSYYGSSLYYLDYWGQGTTLTVSS
VL: QIVLTQSPVIMSASPGEKVTISCSASSSVSNMYWYQQKPGSSPKAWIYRTSNLASGVPARFSGSGSGTSYSLTISSMEAEDAATYYCHQYQSYPRTFGAGTKLEIK
notes: also called 2(C); mAb clone C
Q: B1 was tested. Which Kd did it give?
A: The Kd was less than 1 nM.

B2: anti-MLP monoclonal antibody αMLP Clone B (hybridoma ATCC PTA-121700) (antibody, IgG2a, V domains shown)
VH: EVQLQQSGPELVKPGASVKISCKASGYSFTGFYIHWVKQSHVKSLEWIGRIHPYNGAPTYNQNFKDRARLTVHESSSTAYMEFFGLTSEDSAVYYCARERVYYYGSTYEFDFWGQGTTLTVSS
VL: DVLMTQTPLSLPVSLGDQASISCRSGQSIVHSSGVTYLSWYLQKPGQSPKLLIYKVFYRFSGVPDRFSGSGSGTDFTLKISRVEAEDLGVYYCFQGSHVPPTFGTGTKLELK
notes: also called mAb clone B
Q: For B2, which Kd is on record?
A: The Kd was less than 1 nM.

B3: anti-MLP monoclonal antibody αMLP Clone 11 (hybridoma ATCC PTA-121699) (antibody, IgG2b, V domains shown)
VH: EVQLQQSGPELVKPGASVKISCKASGYAFTGFYIHWMKQSHVKSLEWIGRIHPYNGATSYNQNFKDRASLTVDESSSTAYMEFYGLTSEDSAVYYCARERVYYYGSTYEFDSWGQGTTLTVSS
VL: DVLMTQTPLSLPVSLGDQASISCRSGQSIVHTSGVTYLSWYLQKPGQSPKLLIYKVFYRFSGVPDRFSGSGSGTDFTLKISRVESEDLGVYYCFQGSHVPPTFGAGTKLELK
notes: also called mAb clone 11
Q: For B3, which Kd is on record?
A: The Kd was 0.2 nM.
